Key:
human TNFα (human) = human TNFα (human) (UniProt P01375); experiment: cell-based or functional assay
[1] = target: human non-cleavable membrane bound TNFα on CHO cells (human) (UniProt P01375); experiment: cell-based or functional assay
human non-cleavable membrane bound TNFα on CHO cells (human), sequence (P01375 whole entry): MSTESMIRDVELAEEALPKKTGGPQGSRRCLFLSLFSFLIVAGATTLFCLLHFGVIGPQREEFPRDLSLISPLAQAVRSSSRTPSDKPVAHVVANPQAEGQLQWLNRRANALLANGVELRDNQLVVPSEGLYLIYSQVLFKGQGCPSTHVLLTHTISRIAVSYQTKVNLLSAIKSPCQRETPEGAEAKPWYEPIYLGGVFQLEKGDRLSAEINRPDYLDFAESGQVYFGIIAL

human TNFα (human), sequence (P01375 77-233 limits assumed): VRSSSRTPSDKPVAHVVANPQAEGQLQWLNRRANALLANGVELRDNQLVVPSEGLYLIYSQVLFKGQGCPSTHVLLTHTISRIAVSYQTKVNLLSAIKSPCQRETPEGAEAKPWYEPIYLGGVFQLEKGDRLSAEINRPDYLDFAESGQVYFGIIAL

Average % inhibition of human TNFα-induced CXCL1 production in vivo (mouse plasma) (human TNFα (human)): 89.4%
Substance: adalimumab with IgG4 isotype (antibody)
IC50, inhibition of TNFα-induced killing of L929 cells (MTT) (human TNFα (human)): 0.243 nM
IC50, inhibition of killing of L929 cells by human non-cleavable membrane bound TNFα CHO cells (MTT) [1]: 0.669 nM
